Here are results for one substance from paper PMC12210187.

The test concerns the target Stenotrophomonas maltophilia EntB (Stenotrophomonas maltophilia K279a). The test is described as follows: SEC; analytical size-exclusion chromatography; estimated molecular weight 61.8 kDa.

On to “Stenotrophomonas maltophilia EntB (enzyme)”, for which the stoichiometry N is 2.

By stoichiometry N is commonly meant the number of molecules, sites or subunits per partner or assembly.
